B1: W183C(1, 3, 5, 10): W183C (SEQ ID NO:4) with N39I, G82E, Q83K, N84D, Q175E, Q177H, L178M, N259E and N260S (protein)
chain: ADTRIGVTIYKYDDNFMSVVRKAIEQDAKAAPDVQLLMIDSQNDQSKQNDQIDVLLAKGVKALAINLVDPAAAGTVIEKAREKDVPVVFFNKEPSRKALDSYDKAYYVGTDSKESGIIQGDLIAKHWAANQGWDLNKDGQIQFVLLKGEPGHPDAEARTTYVIKELNDKGIKTEELHMDTAMCDTAQAKDKMDAWLSGPNANKIEVVIANNDAMAMGAVEALKAHNKSSIPVFGVDALPEALALVKSGALAGTVLNDAESQAKATFDLAKNLADGKGAADGTNWKIDNKVVRVPYVGVDKDNLAEFSKK

What was measured:
[1] = Circular dichroism melting temperature (Tm), CD signal at 222 nm versus temperature; format: physicochemical
Procedure: Circular Dichroism (CD) spectra were preformed on a JASCO J-810. Samples of purified fluorophore-labeled proteins were exhaustively dialyzed into phosphate buffered saline (PBS) (comprised of 137 mM NaCl, 10 mM phosphate and 2.7 mM KCl, pH 7.4). The loss of secondary structure of 3M-GGBP and W183C-GGBP was observed by recording the CD signal at 222 nm as a function of temperature. During the experiment, the temperature of the sample changed at a rate of ˜1° C./min between 20 and 80° C. The apparent melting temperature at the midpoint of the transition (Tm) was obtained by fitting the experimental data points (CD signal versus temperature) with a sigmoidal function.

[2] = Fluorescence assay of glucose binding (glucose titration, Kd and fluorescence response)
Procedure: Dye-protein fluorophore (N,N′-dimethyl-N-(iodoacetyl)-N′-(7-nitrobenz-2-oxa-1,3-diazol-4-yl)ethylenediamine designated IANBD) or acrylodan coupling was performed as described by the manufacturer (Molecular Probes).
Briefly, 0.5 ml of 3M-GGBP (1-2 mg/ml) was treated with 2.5 molar excess of dithiothreitol for 30 min. A10-fold molar excess solution of IANBD in DMSO (0.5 mg/100 uL) was then added. While protected from light, the protein and dye were gently mixed for 4 h at 25° C. before the unreacted dye was removed by Nap-5 column chromatography (Amersham Biosciences).
Binding constants were determined by titration of increasing concentrations of glucose into a 0.1 μM protein in PBS and monitoring the change in fluorescence. The Kd was determined from the following relationships as adapted from Pisarchick and Thompson (Pisarchick, M. L. and Thompson, N. L. Biophys. J. (1990), 58, 1235-1249):
[formula] where F is fluorescence intensity, Finf is fluorescence at infinity, F0 is fluorescence at zero
[formula] where [Glc]free is the concentration of free glucose and [Glc]tot and [Prot]tot are the total concentrations of glucose and protein, respectively. For the SM4, the ratio of the area under the fluorescence curve from 514-540 nm to the area under the curve at 450-470 nm was used in place of fluorescence intensity in the equations above. […]

[3] = Storage stability of purified / labeled protein; format: physicochemical; conditions: acrylodan-labeled
Procedure: The modified GGBP were expressed from E. coli strain Sg13009 following standard protocols (Qiagen). After induction, bacteria were lysed using Bugbuster protein extraction reagent (Novagen) and purified by IMAC using Talon cobalt^2+ resin (Clontech). The purified protein in solution was filtered through 100 kDa cutoff filter and then concentrated using a 10 kDa cutoff filter (Millipore). The protein (1-2 mg/ml) was dialyzed at 4° C. into a solution containing 1M NaCl, 10 mM Tris-HCl, and 50 mM NaPO4 (pH 8) and stored at 4° C. Under these conditions the protein was active for at least six months. The yield from the purification was approximately 10 mg/l.
After labeling with acrylodan the SM4 was transferred to a buffer for frozen storage. The protein was dialyzed against a solution of 0.01M MES, 30 mM glucose (pH 5.5-5.7) for 24 h with three changes of buffer. After dialysis the protein was quantified and diluted to a 100 μM solution using the same buffer. The vials were then placed directly into a −70° C. freezer for storage. The protein is stable for at least 3 months under these conditions.
To lyophilize the SM4 protein, the protein solution was dialyzed against ammonium bicarbonate (50 mM, pH 7) for 24 h with three changes of buffer. The protein was passed through a 0.2 um Supor filter (Pall) and was aliquoted into amber vials (2 mg/vial). […]

| Molecule | Tm* ([1]; Tm determined in PBS, fluorophore-labeled protein) [%] | Kd ([2]; glucose titrated into 0.1 μM protein in PBS) [%] | Fluorescent Response ([2]; glucose, labeled protein) [%] | Tm greater than that of the reference protein (W183C) ([1]; FIG. 1, protocol of Example 2) | melting temperature ([1]; without the termini additions present, in PBS) | time the protein is stable, frozen storage ([3]; 100 μM in 0.01M MES, 30 mM glucose (pH 5.5-5.7), −70° C.) | time the protein is stable, lyophilized ([3]; lyophilized from ammonium bicarbonate (50 mM, pH 7)) |
| --- | --- | --- | --- | --- | --- | --- | --- |
| W183C-acrylodan: reference W183C-GGBP labeled with acrylodan | 39.8 ± 2 | 19.6 ± 10 | 3.4 ± 8 | – | – | – | – |
| B1 | – | – | – | about 9.4 °C | about 55.4 °C | at least 3 months | at least 6 months |

— patent US8778635B2, “Thermostable proteins and methods making and using thereof” (Becton, Dickinson and Company, priority 2006, dated 2014)
